Test results published in patent publication US20250312491A1, “BASE EDITING OF TRANSTHYRETIN GENE” (Beam Therapeutics Inc., priority 2022, published 2025).
Oligonucleotides are written 5' to 3', each unit as a sugar letter and its base; * is a phosphorothioate linkage, no mark a phosphodiester; rarer units and linkages stand in square brackets, end groups in braces. Plain capitals give the bases only. m = 2'-O-methyl; r = 2'-OH (RNA)

B1: GA460: guide RNA, human/cyno TTR, protospacer TATAGGAAAACCAGTGAGTC (SEQ ID NO: 26), gRNA SEQ ID NO: 14 (nucleic acid)
guide: TATAGGAAAACCAGTGAGTCGTTTTAGAGCTAGAAATAGCAAGTTAAAATAAGGCTAGTCCGTTATCAACTTGAAAAAGTGGCACCGAGTCGGTGCTTTT
modifications: chemistry not given here
B2: GA459: guide RNA, human TTR, protospacer GCAACTTACCCAGAGGCAAA (SEQ ID NO: 25), gRNA SEQ ID NO: 13 (nucleic acid)
guide: GCAACTTACCCAGAGGCAAAGTTTTAGAGCTAGAAATAGCAAGTTAAAATAAGGCTAGTCCGTTATCAACTTGAAAAAGTGGCACCGAGTCGGTGCTTTT
modifications: chemistry not given here
B3: GA458: guide RNA, cyno TTR, protospacer GCCATCCTGCCAAGAACGAG (SEQ ID NO: 28), gRNA SEQ ID NO: 29; cynomolgus equivalent of GA457 (nucleic acid)
guide: mG*mC*mC*rArUrCrCrUrGrCrCrArArGrArArCrGrArGrGrUrUrUrUrArGrArGrCrUrArGrArArArUrArGrCrArArGrUrUrArArArArUrArArGrGrCrUrArGrUrCrCrGrUrUrArUrCrArArCrUrUrGrArArArArArGrUrGrGrCrArCrCrGrArGrUrCrGrGrUrGrCrU*mU*mU*mU
B4: GA461: guide RNA, human/cyno TTR, protospacer TACTCACCTCTGCATGCTCA (SEQ ID NO: 27), gRNA SEQ ID NO: 15 (nucleic acid)
guide: TACTCACCTCTGCATGCTCAGTTTTAGAGCTAGAAATAGCAAGTTAAAATAAGGCTAGTCCGTTATCAACTTGAAAAAGTGGCACCGAGTCGGTGCTTTT
modifications: chemistry not given here
B5: GA457: guide RNA, human TTR, protospacer GCCATCCTGCCAAGAATGAG (SEQ ID NO: 24), gRNA SEQ ID NO: 11 (nucleic acid)
guide: GCCATCCTGCCAAGAATGAGGTTTTAGAGCTAGAAATAGCAAGTTAAAATAAGGCTAGTCCGTTATCAACTTGAAAAAGTGGCACCGAGTCGGTGCTTTT
modifications: chemistry not given here
B6: GA521: modified guide RNA, human TTR, GA457 spacer with 2′-O-methyl modified tracr, SEQ ID NO: 11 (nucleic acid)
guide: GCCATCCTGCCAAGAATGAGGTTTTAGAGCTAGAAATAGCAAGTTAAAATAAGGCTAGTCCGTTATCAACTTGAAAAAGTGGCACCGAGTCGGTGCTTTT
modifications: chemistry not fully specified

Key:
[1] = target: T1, Asialoglycoprotein receptor (ASGP-R) (Homo sapiens, UniProt P07306); settings: ligand: N-acetylgalactosamine (GalNAc); cited from earlier work
T1 sequence (P07306 1-291): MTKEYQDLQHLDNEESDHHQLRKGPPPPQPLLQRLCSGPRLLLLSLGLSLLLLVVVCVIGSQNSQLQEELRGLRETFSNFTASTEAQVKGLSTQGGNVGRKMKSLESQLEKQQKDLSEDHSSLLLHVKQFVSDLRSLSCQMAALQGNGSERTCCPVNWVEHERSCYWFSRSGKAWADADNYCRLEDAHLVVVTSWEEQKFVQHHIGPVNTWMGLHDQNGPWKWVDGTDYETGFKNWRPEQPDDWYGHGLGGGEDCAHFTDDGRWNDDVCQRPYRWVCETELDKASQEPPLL
T1 sequence (P07307 1-311 partner): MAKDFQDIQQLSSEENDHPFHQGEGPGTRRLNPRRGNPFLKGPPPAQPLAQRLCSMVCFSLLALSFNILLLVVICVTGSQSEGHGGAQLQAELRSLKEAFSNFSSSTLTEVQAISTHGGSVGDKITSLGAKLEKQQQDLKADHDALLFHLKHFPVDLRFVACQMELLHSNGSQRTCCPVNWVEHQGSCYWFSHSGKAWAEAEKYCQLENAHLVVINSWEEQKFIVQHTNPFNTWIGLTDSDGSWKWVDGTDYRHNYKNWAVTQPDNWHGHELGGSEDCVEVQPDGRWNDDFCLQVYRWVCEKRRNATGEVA

TTR on-target site = experiment: Off-target validation in human primary hepatocytes: on-target site editing; assay type: cell-based; settings: for on-target site editing efficiency (in words): treated vs control groups, human primary hepatocytes
Description: (§2) Several candidate off-target sites were analyzed for off-target editing in human primary hepatocytes.

human TTR gene = experiment: Base editing in primary human hepatocytes co-transfected with gRNA and ABE8.8 mRNA, NGS; assay type: cell-based; settings: for Human hepatocytes- Editing % 625, rep 1 / Human hepatocytes- Editing % 625, rep 2: 625 ng/RNA/mL; for Human hepatocytes- Editing % 625, rep 1 / Human hepatocytes- Editing % 1250, rep 1 / Human hepatocytes- Editing % 2500, rep 1: rep 1, 3 days after transfection; for Human hepatocytes- Editing % 625, rep 2 / Human hepatocytes- Editing % 1250, rep 2 / Human hepatocytes- Editing % 2500, rep 2: rep 2, 3 days after transfection; for Human hepatocytes- Editing % 1250, rep 1 / Human hepatocytes- Editing % 1250, rep 2: 1250 ng/RNA/mL; for Human hepatocytes- Editing % 2500, rep 1 / Human hepatocytes- Editing % 2500, rep 2: 2500 ng/RNA/mL; for editing activity in human primary hepatocytes (in words): ABE8.8 mRNA co-transfection
Source text: With this example, gRNA sequences were identified that permit ABE8.8 (and other ABE variants containing Streptococcus pyogenes Cas9, such as ABE7.10, or another Cas protein that can use the NGG PAM) to either: 1) disrupt the start codon, or 2) disrupt splice sites, whether donors or acceptors, via A→G editing within its editing window (roughly positions 4 to 7 in the 20-nt protospacer region of DNA). Five sequences were identified throughout the human TTR gene (Table 1). gRNAs were synthesized matching each of the protospacer sequences and otherwise conforming to the standard 100-nt Streptococcus pyogenes CRISPR gRNA sequence, with each gRNA molecule having a minimal degree of chemical modifications (specified in Table 1).
(§1) The mRNA, and corresponding amino acid, sequence of the ABE8.8 (MA004) used in shown below in Table 11. Three days after transfection, genomic DNA was harvested from the hepatocytes, and assessed for base editing with next-generation sequencing of PCR amplicons generated around the target splice site. […] See FIGS. 5A-5C, FIG. 6, and Tables 2-3.

[2] = system: cynomolgus monkey TTR gene; experiment: Base editing in primary cynomolgus hepatocytes transfected with gRNA and ABE8.8 mRNA, NGS; assay type: cell-based; settings: for Cyno hepatocytes- Editing % 156.25: 156.25 ng/RNA/mL; for Cyno hepatocytes- Editing % 312.5: 312.5 ng/RNA/mL; for Cyno hepatocytes- Editing % 625: 625 ng/RNA/mL; for Cyno hepatocytes- Editing % 1250: 1250 ng/RNA/mL; for Cyno hepatocytes- Editing % 2500: 2500 ng/RNA/mL; for Cyno hepatocytes- Editing % 5000: 5000 ng/RNA/mL; for editing activity in cynomolgus primary hepatocytes (in words): ABE8.8 mRNA co-transfection
Source text: as §1

[3] = system: candidate off-target sites; experiment: Off-target validation in human primary hepatocytes: candidate off-target site editing; assay type: cell-based
Description: With a view towards establishing the safety of a base-editing therapy knocking down of TTR in the human liver in vivo, off-target mutagenesis analysis is assessed in primary human hepatocytes. […] The in vitro biochemical assay ONE-seq was used to generate a list of candidate off-target sites and to determine the propensity of a ribonucleoprotein comprising the ABE8.8 base editor protein and each of the three protospacer guides sequences (GA457, GA460, and GA461) to cleave oligonucleotides in a library.
For each site, the total number of edited reads was normalized to the total number of edited reads assigned to the on-target site, and this ratio defines the ONE-seq score for the site. Sites were ranked by ONE-seq score, and those with a score equal to or larger than 0.001, were selected for validation. A score equal to or larger than 0.001 encompasses sites that have down to 1000-fold less editing activity in the biochemical assay compared to editing of the on-target site. This threshold is based on the premise that in cells, if there is 100% on-target editing, 1/1000-fold less editing activity would translate to <0.1% off-target editing, which falls below the lower limit of detection of editing by NGS.
as §2

TTR gene = experiment: GA521 dose response base editing in primary human hepatocytes, NGS; assay type: cell-based; settings: MessengerMax transfection, various doses total RNA (ng/ml), 3 days
Source text: Exemplary guide RNA GA521 was transfected into primary human hepatocytes using MessengerMax transfection. GA521 disrupts the start codon AUG of the TTR gene by editing it to ACG with an A-to-G base editor (e.g., ABE8.8; ABE8.8-m).
Three days after transfection, genomic DNA was harvested from the hepatocytes, and assessed for base editing with next-generation sequencing of PCR amplicons generated around the target splice site.
FIG. 29 depicts dose response for human gRNA GA521 in primary human hepatocytes. Percent base editing at various doses (ng/ml) total RNA was determined from NGS analysis. GA521 was the guide RNA.

[4] = GA460 On-target TATAGGAAAACCAGTGAGTC
[5] = GA459 On-target GCAACTTACCCAGAGGCAAA
[6] = GA457 site OT29 GACATCCTGTCAAGGATCAG
[7] = GA457 site OT31 GCCATAAGCCAAAGAATGAC

Row | Molecule | on-target site editing efficiency (in words) (TTR on-target site) | Human hepatocytes- Editing % 625, rep 1 (human TTR gene) | Human hepatocytes- Editing % 625, rep 2 (human TTR gene) | Human hepatocytes- Editing % 1250, rep 1 (human TTR gene) | Human hepatocytes- Editing % 1250, rep 2 (human TTR gene) | Human hepatocytes- Editing % 2500, rep 1 (human TTR gene) | Human hepatocytes- Editing % 2500, rep 2 (human TTR gene) | editing activity in human primary hepatocytes (in words) (human TTR gene) | Cyno hepatocytes- Editing % 156.25 [2] | Cyno hepatocytes- Editing % 312.5 [2] | Cyno hepatocytes- Editing % 625 [2] | Cyno hepatocytes- Editing % 1250 [2] | Cyno hepatocytes- Editing % 2500 [2] | Cyno hepatocytes- Editing % 5000 [2] | editing activity in cynomolgus primary hepatocytes (in words) [2] | off-target editing at candidate off-target sites (in words) ([3]; human primary hepatocytes) | further results
1 | CC(=O)NC1O[C@H](CO)[C@H](O)[C@H](O)[C@H]1O (stereo partly drawn) [N-Acetyl-D-Galactosylamine] |  |  |  |  |  |  |  |  |  |  |  |  |  |  |  |  | affinity for ASGP-R relative to D-Gal [1]: 50 fold
2 | B1 | high editing efficiency | 23.77% | 22.27% | 38.33% | 35.8% | 47.61% | 47.79% | high editing activity | 1.62% | 11.22% | 18.44% | 31.71% | 38.25% | 40.16% | high editing activity | little to no off-target editing | SUM Editing %-Human Primary Hepatocytes Treat rep 1 (TTR on-target site; [4]): 76.4%; SUM Editing %-Human Primary Hepatocytes Treat rep 2 (TTR on-target site; [4]): 74.3%
3 | B2 | high editing efficiency | 3.79% | 3.89% | 5.46% | 6.15% | 8.5% | 8.69% |  |  |  |  |  |  |  |  | little to no off-target editing | SUM Editing %-Human Primary Hepatocytes Treat rep 1 (TTR on-target site; [5]): 14.17%; SUM Editing %-Human Primary Hepatocytes Treat rep 2 (TTR on-target site; [5]): 14.29%
4 | B3 |  |  |  |  |  |  |  |  | 6.06% | 10.65% | 16.07% | 22.74% | 27.25% | 35.91% | high editing activity |  | 
5 | B4 | high editing efficiency | 21.81% | 22.31% | 32.82% | 32.38% | 40.42% | 39.43% | high editing activity | 0.07% | 7.45% | 13.16% | 19.46% | 29.8% | 37.53% | high editing activity | little to no off-target editing | SUM Editing %-Human Primary Hepatocytes Treat rep 2 (TTR on-target site; GA461 On-target TACTCACCTCTGCATGCTCA): 58.9%
6 | B5 | high editing efficiency | 17.24% | 15.39% | 26.49% | 24.86% | 33.96% | 31.31% | high editing activity |  |  |  |  |  |  |  |  | % Editing-human primary hepatocytes Treated (TTR on-target site; GA457 On-target GCCATCCTGCCAAGAATGAG): 54.21%; % Editing-human primary hepatocytes Net (TTR on-target site; GA457 On-target GCCATCCTGCCAAGAATGAG, treated minus untreated): 54.1%; net editing at all off-target sites ([3]; 47 candidate off-target sites, human primary hepatocytes): less than 0.4%; % Editing-human primary hepatocytes Net ([3]; GA457 site OT3 GCCATACCTGCCATGAATGAG): 0.01%; % Editing-human primary hepatocytes Net [3, 6]: 0.05%; % Editing-human primary hepatocytes Treated [3, 6]: 0.21%; % Editing-human primary hepatocytes Net [3, 7]: 0.09%; % Editing-human primary hepatocytes Treated [3, 7]: 0.09%
7 | B6 |  |  |  |  |  |  |  |  |  |  |  |  |  |  |  |  | percent base editing in primary human hepatocytes (TTR gene): greater than 40%
